In PMC10279719 (Nature Communications, 2023):

B1: PEAK1-IDR1: recombinant human PEAK1 residues 1082–1746, insect cell expressed (protein)
chain: LPELEREDGKEDISDPMDPNPCSATYSNLGQSRAAMIPPKQPRQPKGAVDDAIAFGGKTDQEAPNASQPTPPPLPKKMIIRANTEPISKDLQKSMESSLCVMANPTYDIDPNWDASSAGSSISYELKGLDIESYDSLERPLRKERPVPSAANSISSLTTLSIKDRFSNSMESLSSRRGPSCRQGRGIQKPQRQALYRGLENREEVVGKIRSLHTDALKKLAVKCEDLFMAGQKDQLRFGVDSWSDFRLTSDKPCCEAGDAVYYTASYAKDPLNNYAVKICKSKAKESQQYYHSLAVRQSLAVHFNIQQDCGHFLAEVPNRLLPWEDPDDPEKDEDDMEETEEDAKGETDGKNPKPCSEAASSQKENQGVMSKKQRSHVVVITREVPCLTVADFVRDSLAQHGKSPDLYERQVCLLLLQLCSGLEHLKPYHVTHCDLRLENLLLVHYQPGGTAQGFGPAEPSPTSSYPTRLIVSNFSQAKQKSHLVDPEILRDQSRLAPEIITATQYKKCDEFQTGILIYEMLHLPNPFDENPELKEREYTRADLPRIPFRSPYSRGLQQLASCLLNPNPSERILISDAKGILQCLLWGPREDLFQTFTACPSLVQRNTLLQNWLDIKRTLLMIKFAEKSLDREGGISLEDWLCAQYLAFATTDSLSCIVKILQHR
modifications: left off: His tag, N-terminal, state not stated
notes: recombinant human PEAK1 residues 1082–1746, insect cell expressed
B2: PEAK1-IDR1 (+ Src phosphorylation): PEAK1 residues 1082–1746 phosphorylated with recombinant Src kinase (protein)
chain: B1 chain
modifications: phosphotyrosine at Y1107 (by Src in vitro, shown by MS/MS); other Src sites not stated; biotin (EZ-Link NHS-PEG4-Biotin, 1:1 molar ratio); left off: His-tag, N-terminal, state not stated
notes: PEAK1 residues 1082–1746 phosphorylated with recombinant Src kinase
B3: PEAK2-IDR1: recombinant human PEAK2 residues 802–1406, insect cell expressed (protein)
chain: EDVSPSGPQQPPPLPQKKIVSRAASSPDGFFWTQGSPKPGTASPKLNLSHSETNVHDESHFSYSLSPGNRHHPVFSSSDPLEKAFKGSGHWLPAAGLAGNRGGCGSPGLQCKGAPSASSSQLSVSSQASTGSTQLQLHGLLSNISSKEGTYAKLGGLYTQSLARLVAKCEDLFMGGQKKELHFNENNWSLFKLTCNKPCCDSGDAIYYCATCSEDPGSTYAVKICKAPEPKTVSYCSPSVPVHFNIQQDCGHFVASVPSSMLSSPDAPKDPVPALPTHPPAQEQDCVVVITREVPHQTASDFVRDSAASHQAEPEAYERRVCFLLLQLCNGLEHLKEHGIIHRDLCLENLLLVHCTLQAGPGPAPAPAPAPAPAAAAPPCSSAAPPAGGTLSPAAGPASPEGPREKQLPRLIISNFLKAKQKPGGTPNLQQKKSQARLAPEIVSASQYRKFDEFQTGILIYELLHQPNPFEVRAQLRERDYRQEDLPPLPALSLYSPGLQQLAHLLLEADPIKRIRIGEAKRVLQCLLWGPRRELVQQPGTSEEALCGTLHNWIDMKRALMMMKFAEKAVDRRRGVELEDWLCCQYLASAEPGALLQSLKLLQLL
modifications: phosphorylated at the tandem site 14-3-3 motif (RAASSP) by LC MS/MS; left off: His tag, N-terminal, state not stated
notes: recombinant human PEAK2 residues 802–1406, insect cell expressed
B4: PEAK2-IDR1 (+ Src phosphorylation): PEAK2 residues 802–1406 phosphorylated with recombinant Src kinase (protein)
chain: B3 chain
modifications: phosphorylated with Src kinase, sites not stated; phosphorylation of the tandem site 14-3-3 motif (RAASSP) found by proteomic analysis; biotin (EZ-Link NHS-PEG4-Biotin, 1:1 molar ratio); left off: His
notes: PEAK2 residues 802–1406 phosphorylated with recombinant Src kinase

What was measured:
14-3-3ɣ = test: SPR, 14-3-3ɣ binding to immobilised PEAK proteins; set-up: species or system human; conditions: 14-3-3ɣ analyte 0.46–1000 nM, multi-cycle, over immobilised biotinylated PEAK protein; Biacore 8K+, 20 °C; KD only an estimate (bivalent analyte model); N = 3
Protocol: PEAK proteins and adapters proteins (full length or individual domains) were biotinylated using EZ-Link™ NHS-PEG4-Biotin (Thermo Fisher) at a 1:1 molar ratio (100 µM) for 1 h at room temperature, then excess biotin was removed by buffer exchange using a Zeba™ Spin Desalting Column (Thermo Fisher) into HBS-T buffer (20 mM HEPES pH 7.4, 150 mM NaCl, 1 mM TCEP).
SPR binding studies of PEAK proteins to full length CrkII/Grb2 and sub-domains were performed using a Biacore 8K+ Instrument (Cytiva) and analyzed using Biacore Insight Evaluation Software (v. 3.0.12.15655). […] Biotinylated PEAK proteins (with or without Src phosphorylation; 500 nM in HBS-TP) were immobilized using a biotin CAPture kit (Cytiva) in HBS-TP running buffer at 20 °C. Binding studies and steady-state data analysis were performed as described for CrkII^NSH3 with the inclusion of an additional surface regeneration step (60 s injection of 1 M NaCl) between cycles. For Grb2^FL, Grb2^SH2, CrkII^SH2, CrkII^FL monomer and CrkII^FL dimer, to reduce nonspecific interactions the HBS-TP running buffer was supplemented with additional NaCl to a final concentration of 500 mM.
Binding studies for 14-3-3ɣ were undertaken in the same way in multi cycle mode (8 point, 3-fold serial dilution series, 0.46–1000 nM, 60 s contact time, 300 s dissociation).

CrkII^NSH3 = target: T1, CrkII^NSH3 (Homo sapiens, UniProt P46108); test: SPR, CrkII NSH3 binding to immobilised PEAK proteins; conditions: read-out: CrkII NSH3 SPR KD; interactor as analyte over biotinylated PEAK protein captured with biotin CAPture kit; Biacore 8K+, HBS-TP, 20 °C; steady-state fit; mean ± SD (N = 2); read-out: CrkII-SH2 SPR KD
T1 construct: CrkII^NSH3; UniProt P46108-1, residues 134–191; 8-His tag with TEV protease cleavage site (N); made in house; host or cells: E. coli C41 (DE3)
T1 sequence (P46108 134-191): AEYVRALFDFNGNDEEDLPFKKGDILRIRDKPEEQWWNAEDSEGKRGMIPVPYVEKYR
Protocol: (§1) SPR binding studies of PEAK PRM peptides to CrkII^NSH3 were performed using a Biacore S200 Instrument (Cytiva). Purified CrkII^NSH3 was diluted to 5 µg ml^−1 in 10 mM sodium acetate pH 4.0 and amine coupled at 25 °C to a Series S CM5 sensor chip, in HBS-N running buffer (20 mM HEPES pH 7.4, 150 mM NaCl) to a final immobilization level of 1100–1400 response units (RU), followed by surface deactivation using 1 M ethanolamine. A blank activation/deactivation was used for the reference surface. Peptide binding studies were performed at 20 °C in HBS-TP running buffer (20 mM HEPES pH 7.4, 150 mM NaCl, 1 mM TCEP, 0.005% (v/v) Tween-P20). […] Peptide stocks were further diluted to in running buffer to 10 or 20 µM and prepared as a 11-point concentration series (2-fold serial dilution, […] for PEAK PRM peptides, or 20 µM–20 nM for PEAK tandem motif peptides). Samples were injected in a multi-cycle run (flow rate 30 µl min^−1, contact time of 60 s, dissociation 120 s) without regeneration. Sensorgrams were double referenced, and steady-state binding data fitted using a 1:1 binding model using Biacore S200 Evaluation Software (Cytiva, v. 1.1).
(§2) SPR binding studies of PEAK proteins to full length CrkII/Grb2 and sub-domains were performed using a Biacore 8K+ Instrument (Cytiva) and analyzed using Biacore Insight Evaluation Software (v. 3.0.12.15655). […] Binding studies and steady-state data analysis were performed as described for CrkII^NSH3 with the inclusion of an additional surface regeneration step (60 s injection of 1 M NaCl) between cycles.

CrkII^FL dimer = target: T2, CrkII^FL dimer (Homo sapiens, UniProt P46108); test: SPR, CrkII FL dimer binding to immobilised PEAK proteins; conditions: interactor as analyte over biotinylated PEAK protein (biotin CAPture); Biacore 8K+, HBS-TP with 500 mM NaCl, 20 °C; steady-state fit; mean ± SD (N = 2)
T2 construct: full length CrkII (CrkII^FL; UniProt P46108-1, residues 1–330); 8-His tag with TEV protease cleavage site (N); made in house; host or cells: E. coli C41 (DE3)
T2 sequence (P46108 whole entry, the tested form may be a part): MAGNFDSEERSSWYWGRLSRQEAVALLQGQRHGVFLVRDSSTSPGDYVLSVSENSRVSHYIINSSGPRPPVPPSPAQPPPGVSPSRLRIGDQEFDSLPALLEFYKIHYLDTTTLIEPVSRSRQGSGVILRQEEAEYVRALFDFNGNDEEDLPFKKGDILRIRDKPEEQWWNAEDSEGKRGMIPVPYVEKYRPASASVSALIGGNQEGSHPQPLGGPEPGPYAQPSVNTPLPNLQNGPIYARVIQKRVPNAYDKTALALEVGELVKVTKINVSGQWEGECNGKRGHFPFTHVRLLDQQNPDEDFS
Protocol: as §1, §2

CrkII^SH2 = target: T3, CrkII^SH2 (Homo sapiens, UniProt P46108); test: SPR, CrkII SH2 binding to immobilised PEAK proteins; conditions: interactor as analyte over biotinylated PEAK protein (biotin CAPture); Biacore 8K+, HBS-TP with 500 mM NaCl, 20 °C; steady-state fit; mean ± S.E.M. (N = 3)
T3 construct: CrkII^SH2; UniProt P46108-1, residues 6–120; 8-His tag with TEV protease cleavage site (N); made in house; host or cells: E. coli C41 (DE3)
T3 sequence (P46108 6-120): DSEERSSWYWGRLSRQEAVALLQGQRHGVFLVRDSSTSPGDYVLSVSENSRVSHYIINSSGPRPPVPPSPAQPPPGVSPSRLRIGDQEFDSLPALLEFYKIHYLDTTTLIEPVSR
Protocol: as §1
(§3) SPR binding studies of PEAK proteins to full length CrkII/Grb2 and sub-domains were performed using a Biacore 8K+ Instrument (Cytiva) and analyzed using Biacore Insight Evaluation Software (v. 3.0.12.15655). […]

CrkII^FL monomer = target: T4, CrkII^FL monomer (Homo sapiens, UniProt P46108); test: SPR, CrkII FL monomer binding to immobilised PEAK proteins; conditions: interactor as analyte over biotinylated PEAK protein (biotin CAPture); Biacore 8K+, HBS-TP with 500 mM NaCl, 20 °C; steady-state fit; mean ± SD (N = 2)
T4 construct: full length CrkII (CrkII^FL; UniProt P46108-1, residues 1–330); 8-His tag with TEV protease cleavage site (N); made in house; host or cells: E. coli C41 (DE3)
T4 sequence (P46108 whole entry, the tested form may be a part): as the sequence (P46108 whole entry, the tested form may be a part) above
Protocol: as §1, §2

Grb2^SH2 = Grb2^SH2 (Homo sapiens, UniProt P62993); test: SPR, Grb2 SH2 binding to immobilised PEAK proteins; conditions: interactor as analyte over biotinylated PEAK protein (biotin CAPture); Biacore 8K+, HBS-TP with 500 mM NaCl, 20 °C; steady-state fit; mean ± S.E.M. (N = 3)
Sequence of Grb2^SH2 (P62993 60-152 limits assumed): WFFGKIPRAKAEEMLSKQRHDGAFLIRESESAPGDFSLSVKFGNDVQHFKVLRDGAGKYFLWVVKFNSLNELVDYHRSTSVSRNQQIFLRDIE
Protocol: as §1, §3

Grb2^FL = target: T5, Grb2^FL (Homo sapiens, UniProt P62993); test: SPR, Grb2 FL binding to immobilised PEAK proteins; conditions: interactor as analyte over biotinylated PEAK protein (biotin CAPture); Biacore 8K+, HBS-TP with 500 mM NaCl, 20 °C; steady-state fit; mean ± SD (N = 2) or S.E.M. (N = 3)
T5 construct: Grb2^FL; UniProt P62993-1, residues 1–217; 8-His tag with TEV protease cleavage site (N); made in house; host or cells: E. coli C41 (DE3)
T5 sequence (P62993 whole entry, the tested form may be a part): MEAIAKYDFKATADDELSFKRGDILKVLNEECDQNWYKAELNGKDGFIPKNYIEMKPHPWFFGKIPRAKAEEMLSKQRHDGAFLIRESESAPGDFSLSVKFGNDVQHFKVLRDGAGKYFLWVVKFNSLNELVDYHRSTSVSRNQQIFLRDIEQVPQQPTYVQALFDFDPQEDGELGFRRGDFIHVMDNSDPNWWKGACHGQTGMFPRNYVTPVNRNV
Protocol: as §1, §3

Row | Molecule | SPR KD, 14-3-3ɣ (14-3-3ɣ) | Kd (CrkII^NSH3) [µM] | Kd (CrkII^FL dimer) [µM] | SPR KD, CrkII-SH2 (CrkII^SH2) | Kd (CrkII^FL monomer) [µM] | SPR KD, Grb2 SH2 (Grb2^SH2) | Kd (Grb2^FL) [µM]
1 | B1 | No binding | 3.7 | 2.03 | No binding | 9.2 | No binding | > 50
2 | B2 | No binding | 4.11 | 1.49 |  | 1.5 |  | 
3 | B3 | No binding | 4.79 | 4.22 | No binding | 13.7 |  | 
4 | B4 | No binding | 5.2 | 1.38 |  | 2.12 |  | 
